# Laboratory results from the DeepSol protein solubility set.
# Test: soluble on expression in E. coli; label from the status in PepcDB or PDB records
row,Sequence,soluble on expression in E. coli
1,NLLDDAVKRISEDPPCKCPTKFCVERLSQGRYRVGEKILFIRMLHNKHVMVRVGGGWETFAGYLLKHDPCRMLQISRVDGKTSP,soluble
2,MGLQTYNAKRSFDKTPEPKGTKAEKPGSSFVIQKHDARRLHYDFRLEMDGVLKSWAVTRGPSLDPEDKRLAVHVEDHPLSYGDFEGVIPKGQYGGGTVIVWDRGIWQPIGDAGKGYRKGHLEFELEGEKLKGRWHLVRMHGKPGESRENWLLIKGDDEEARHLEHHHHHH,soluble
3,MTMLKNNLELLKKRYPEIYNEIKDIHVDSNAYQIIQNNEGQKTLKVTLDLYGENKSFFLHSKYHPDVEADRFAREQYKPEFSIQILYGFGLGYHVEKIAGLLKPDSMLYVIENNLMVFRSALENMDLCPILENRNVSLIVSKDVGYISEKVKELIDNNLDKVSFITHPASLKAIPEENEYFKFVMENWNLKKSITDDYDNTLRNNAKENLKLNSPNVGIFFDKFKDVPIIIVSTGPSLDKNIDLLKEAKGRALIISAGSALRPLLMRNIKPDFFAIIDPQDITYNQIKGYENIGIPFIYLVTAASYTVSRYLGPKLVAYYGKYNNSSEHLVDSGGSVATTILDIAIKMGGNPIILVGQDLAYVDGKNHAQYGSHASIYSPELKNMRRVKGQNGEMLYTSLGLLSYKYWIENRIQKEKRIFINATEGGAYIEGMKHIKLRDVISDYLKESFDFENKIKSILKESGIQHVQG,soluble
4,MKINRKGGLFLLMFLFLLTGCWDRRELEHVLFINTLGIDFKDNHYIIYPQFINFTNMAKQEGPANRNYSPAYIGKGEGKLLYDAAFDFYKSSQQKVSWEHIKSIVVTERFLKNGNLNQLNDFLSRFFQFRNTMWVFGTKEPLENILATNNIFNISSLYTIMNLPQETIRQSASVDPLRLYTFRSNYYEPGMTTRIPFLATTTEHWKQGHKAFWMLEFNEYGCIAAKSYVNHLNDSDIAGVRWTNKNTNRAPLLLKVKNRAIGELILKKPKIDTKVSIEKGKPHIVMNISLEGDIYQLMKPMPVHKVKKTLRISLKKK,not soluble
5,MADEKMSEFTDEELNKKVKELQDAVIEKVRTEAETPAVSGGYPGSNAYRPELDRVPSREEILERISWLREMIDDILKPKPSDFDPLIEKTEKLRDLFGVESHQPGGDSRLRNIDTSKNAIQQWDGAFADNLAEKYFAPLEDVRGNHGRMAKVLNENAVAMKATYVHARGQAKRTLDDGVKAIEAIVDSKGSDLKILLAILTGATSLITPLLPSKTAVQLGSAGLSTLLSNLGEAGPEEQEEVPLGADTPEGVMDNVKEALEKVKTKRGEDEDSIIKAVNDSEKAIYERMTKSTHQTEDDPIYAPRPTIMDSSKPSEGLTKD,not soluble
6,MGSDKIHHHHHHMQVIIVEDEKTLRFSPLADLKPVYDLVTGCFSLRQRFVEALGARQKLTWHLRRHIAPWFAEANPGSVVNRVLEDEVLLVNGRLICDAAVTQFIDARKIAPGEALIQNGNLLFCRTTAEPLHVLETVFPDTIDGMVLAGAFSCVEVSGFRLIENLWDPVAMHPAMMREDGAALALGRIEGEVHPSAILVNPSAITVEKGAEVKAGAVLDASDGFIYIGAGAVVEPVALLMENVYIAPGARVKSGARIYSNVCIGGGAKAGGEIEDSIMEPFSNKQHDGFLGHSYISSWCNLGAGTDTSDLKNNYSPVSIETAHGKMATGQQFLGLLMGEHSKCSIGTRFNTGTVVGISSNIFGNGMPAKYVPSFSWGDGNPGTARYEADKAVETARKVMARRKVEMSAAYEAMFRAVAGE,not soluble
7,MLIEERLAKIQKIVNEQKSISMEALAEQVSVSKDTIRRDLIRLEKEGHLKRTHGGAISVQSEATIYDYAQRIVKHPEKKQAIAQKVWANIPKQASIFFDSSTTVEAAIRAMENSPIHAITNSLSHALLLAQMDQTKITVLPGQLHKQQLFLFGAETVAKVGEFAPDYTLLGVFALSEQGLFIHTEEEGQVKRRMIQQGKQVIALADQTKLNKTGLFKICELTEIDCLVTDTRPDEKFCEQLAQAGVTLIVADELEHHHHHH,soluble
8,MKLFQVLIISMICLALVEERRDRSNRRRNQSEGGSRSRSESWLGSSGSSRSRSSGRSAASAGSSQAASPAGASAIGSSQAGSSAGSPAAAAAGGSGGADAGAILNGVGGLMRSVGGLAGAAGGAAGGAAGAPAGAPAGASAGASAAPAAQDAGTVLGGVSGVLTGVSGIVSAAGAAKA,not soluble
9,MGHHHHHHSHMGLSYQEELTLPFELCDVKSDIKLPLLLDYCLMVSGRQSAQLGRSNNNLLVDYKLVWIVTDYEITIHRLPHFQETIIIETKALSYNKFFCYRQFYIYDQEGGLLVDILAYFALLNPDTRKVATIPEDLVAPFETDFVKKLHRVPKMPLLEQSIDRDYYVRYFDIDMNGHVNNSKYLDWMYDVLGCEFLKTHQLLKMTLKYVKEVSPGGQITSSYHLDQLTSYHQIISDGQLNAQAMIEWRAIKPIESETD,not soluble
10,MGSDKIHHHHHHMKIGDKVRFLSEVGGGIVTGFKGKDFVLVEDADGFDIPMPIRECVVIEADDYNIKRKPAATAPKQEEPAKPAKPEMPVIQRQPEVRGGDTLNVFLAYVPEDAKAMMTTPFEAYLVNDSNYYLYYTYLSAEGKAWNNRSHGLVEPNTKLLLEEFTKDVLNEMERVAVQLIAFKDGKPAAIKPAVSVELRIDTVKFYKLHTFSASDFFEEPALIYDIVKDDVPAKQVYVSAEEIQSALLQKKFVDKPKSQPIMKPNHGQSGKNGIIEVDLHIDSLLDDTHGMSNSEILNYQLDKFREVIEANKEKREQKVVFIHGKGDGVLRKAIIDELKRKHSNYRYQDASFQEYGFGATMVTIK,not soluble
11,MGIKGDKKATSDQARLARLTLEGNSGNEEDIQFMIKTIIETTGCTQAQAEIALLDTDNNLYGAIDHILDAGDKLDSWTEQKGAKKEKKKPEEGSYNNRGFVARGRGGGTGFVDRGGRGRSNGAPRESRDNNRDNRDNKEGAAPRSTRGGFEKPYVGRGGRGGARGGYSRAVAPSSALEPDAFTADLDENQTKVDTTVTEVQPPVEESVTATVPTSSAPAPISFAAVAAAAHRKEALRKHQAQNPQPAAPPRRSLSPQPPLPSVAPVKEEPAAAPVFFEPETSHQPEKEDGFFQNESSVLAEEQTPNVSTHHDENVQSTPEPNQAWTTQLKTDLGIGLSEAPGLGLSPIPSAAPVQIIPDPGVEFVGTTAPTNIHDYSFGFVEAAPSPQLPSTESSAASISNASENIFNSSRIMPKQVEPERTSIPNGDYNLKSTSPPLSYGQSNRGLSYDTSSASYQPTDRMAPNKFNNSGPLPTQQSAQQHQPQQQQQQAPQQPVQQQQQTPPAQSQPTGHPQQHPHMMFTQQLPYAPYMNNYMNMYNPMPGVRDEQYTAALMQYGMGVDLTSLLPTAPLSQAASAQQVQSGQQRETHGLMDFNKFGSQSSRDQQPQQASNVGPPPGFQATNYMQQPNLSSLFMQQYSPAPHQFTPFMNMMPNVGSSAGGRQLYGQDDERKSYDKMSGSKPAAQQNQHSQYQHNGGNLGKYGMNKPYNWSN,not soluble
12,MALLEICCYSMECALTAQRNGADRIELCAAPKEGGLTPSFGVLRSVREHITIPVHPIIRPRGGDFYYTDGEFAAMLEDIRLVRELGFPGLVTGVLTVDGDVDMSRMEKIMAAAGPLAVTFHRAFDMCANPFNALKNLADAGVARVLTSGQKADAAQGLSIIMELIAQGDAPTIMAGAGVRANNLQNFLDAGVREVHSSAGVLLPSPMRYRNQGLSMSADIQADEYSRYRVEGAAVAEMKGIIVRHQAKLEHHHHHH,soluble
13,MGSDKIHHHHHHMAEELLPLKTVRNPRDLGGYTGFAGRKIKAGLLLRTGTVAAISEEDGNYLRARGVKTIIDLRSPQECRKRPDKKLAGIQNVNIPVNSRDQTKAEASLAELARQYGLDPLAGFRHMVESYRLMVTEEHAQAAFGQVLAYLAETEGGTIYHCSEGKDRTGLVTVFLLTVLGVDPETIRQDYLLSAPYLNVYRAKRDKEARENGESLVQRANLRSLGTVNNEYLDS,not soluble
14,YIGLVNSFAQKKKLSVNYEQCEPNSELPQRFICKCKIGQTMYGTGSGVTKQEAKQLAAKEAYQKLLKSPPKTAGT,soluble
15,MHTFFVTSTGFGVGLTSTSLGLVRALEYGGLKAGFYKPVAQQHPGNSKLEYSTELISRTLGLAPPAPLPLATVEHLLGEGQIDDLMEDIVRRFKQASEGYDVMVVEGMVPTRHVSYASRVNTRLASSLDADIILVSSAEDDALQAITDRIEIQAQFFGGAQNPRLLGVILNKIRTDHSDDLFEQLKNHSTLFHQSSFQILGCIPWEDSLNAPRMADVVTQLQAQ,not soluble
